Data set [1] deals with T1, GAAP-1 (IPCS-BF1, 2.5 kb PRDII-BF1 splice product) (Homo sapiens, UniProt P15822 SEQ:1-693).
T1 chain: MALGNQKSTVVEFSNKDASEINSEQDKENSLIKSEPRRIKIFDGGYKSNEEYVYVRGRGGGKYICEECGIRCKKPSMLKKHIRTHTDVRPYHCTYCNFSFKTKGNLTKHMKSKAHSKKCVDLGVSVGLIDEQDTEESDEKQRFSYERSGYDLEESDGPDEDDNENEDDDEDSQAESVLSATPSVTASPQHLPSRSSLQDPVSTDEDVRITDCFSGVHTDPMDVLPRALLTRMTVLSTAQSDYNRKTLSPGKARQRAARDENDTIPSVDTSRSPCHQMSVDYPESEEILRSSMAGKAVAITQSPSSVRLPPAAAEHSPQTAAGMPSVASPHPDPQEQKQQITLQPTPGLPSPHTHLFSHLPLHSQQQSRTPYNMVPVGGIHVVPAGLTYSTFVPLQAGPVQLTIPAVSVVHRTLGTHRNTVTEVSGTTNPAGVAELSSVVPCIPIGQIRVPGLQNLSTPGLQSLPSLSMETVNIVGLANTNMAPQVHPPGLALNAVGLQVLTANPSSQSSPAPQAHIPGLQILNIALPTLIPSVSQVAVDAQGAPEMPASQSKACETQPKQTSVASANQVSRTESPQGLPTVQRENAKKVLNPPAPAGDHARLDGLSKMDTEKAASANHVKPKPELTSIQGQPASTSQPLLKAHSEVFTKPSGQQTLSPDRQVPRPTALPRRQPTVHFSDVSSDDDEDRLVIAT
The data set is described as follows: EMSA; one complex; competed by 50-fold excess; weaker than NF-kB probe in vitro. As to conditions: tags: none (TNT reticulocyte lysate, pcDNA3.1); label: 32P. Here is the method: FIG. 5a)—EMSA using the IPCS-p53 probe and in vitro translated GAAP-1 (lane1), GAAP-1 mtZ1 (lane 3), GAAP-1 mt Z2 (lane 5), or reticulocyte lysat with the empty expression vector (lane 7). Even lanes: 50 fold molar excess of IPCS-p53 oligonucleotide was added to the reaction of the previous lane. The arrow indicates the specific complex.
Synthetic double stranded oligonucleotide probes were labelled with α-³²P dCTP (Amersham Corp.) by “filling-in” with Sequenase, and then purified on Sephadex G-50. The protein-DNA binding reactions were carried out using 5 μg of nuclear extract and 0.1 fmol of probe in 20 μl of binding buffer (20 mM Tris-HCl, 25 mM KCl, 1 mM DTT, 1 mM EDTA, 0.1% Nonidet P40, 4% glycerol, 1 mg/ml bovine serum alcbumin, μg/ml poly(dI-dC)) for 20 min at 4° C. In vitro translation products were generated by 50 μl of TNT coupled reticulocyte Lysate System (Promega) and 1 μg of the appropriate plasmid. […]
PRDII-BF1 was previously described as a protein binding to an NF-κB site whose ability to recognise the DNA is determined by two pairs of zinc fingers, one of them present in GAAP-1 (Fan 90, Gaynor, Baldwin). […] To confirm the binding specificity of the cloned GAAP-1 for the IPCS target sequence, in vitro translated GAAP-1 was incubated with labelled IPCS or NF-κB oligonucleotide and analysed by Electro Mobility Shift Assay (EMSA). […]

The target of data set [2] is T1, GAAP-1 (IPCS-BF1, 2.5 kb PRDII-BF1 …). The data set is described as follows: EMSA; two complexes (possible homodimer); considerably stronger than IPCS-p53. As to conditions: tags: none (TNT reticulocyte lysate, pcDNA3.1); label: 32P. Here is the method: The protein-DNA binding reactions were carried out using 5 μg of nuclear extract and 0.1 fmol of probe in 20 μl of binding buffer (20 mM Tris-HCl, 25 mM KCl, 1 mM DTT, 1 mM EDTA, 0.1% Nonidet P40, 4% glycerol, 1 mg/ml bovine serum alcbumin, μg/ml poly(dI-dC)) for 20 min at 4° C. In vitro translation products were generated by 50 μl of TNT coupled reticulocyte Lysate System (Promega) and 1 μg of the appropriate plasmid. 5 μl of the in vitro product was used instead of the nuclear extract when required. The reaction mixture was then electrophoresed on a 6% non denaturing acrylamide gel. Competition experiments were carried out using a 50-fold molar excess of the unlabelled probe. The following oligonucleotides (and their complementary strands) were used in these studies:
PRDII-BF1 was previously described as a protein binding to an NF-κB site whose ability to recognise the DNA is determined by two pairs of zinc fingers, one of them present in GAAP-1 (Fan 90, Gaynor, Baldwin). […] To confirm the binding specificity of the cloned GAAP-1 for the IPCS target sequence, in vitro translated GAAP-1 was incubated with labelled IPCS or NF-κB oligonucleotide and analysed by Electro Mobility Shift Assay (EMSA). […] Furthermore, the affinity of in vitro translated GAAP-1 was considerably stronger for the NF-κB probe than for the IPCS-P53 probe. […]
A general note: A gel shift assay detects complexes by their altered migration in electrophoresis.

B1: IPCS-p53 EMSA probe (dsDNA)
DNA 1: AATGCAGGATTCCTCCAAAATGATTTCCAC
DNA 2: GTGGAAATCATTTTGGAGGAATCCTGCATT
As to B1, the binding result in data set [1] is recorded as “binds”.

B2: NF-kB-MHC (dsDNA)
DNA 1: GATCCTCTGGGGATTCCCCATGGA
DNA 2: TCCATGGGGAATCCCCAGAGGATC
With B2, the binding result in data set [2] is listed as “binds”.

(Values after patent US20050112108, “Transcriptional regulator of genes involved in the control of cell growth or cell proliferation. Use of said regulator as a therapeutic or diagnostic agent” (published 2005).)
